Results from patent publication US20250027060A1 (VIB VZW, published 2025).
Values belong to the binder of their own block, whether it stands above or below them.

Assays:
[1] = target: T1, LTKTG (human LTK amino acids 63-379) (human, UniProt P29376 63-379); assay: ITC at 310 K, LTKTG (10 µM) titrated with ALKAL1FL (40 µM), one-site model
T1 construct: also called LTK TG supradomain
T1 sequence: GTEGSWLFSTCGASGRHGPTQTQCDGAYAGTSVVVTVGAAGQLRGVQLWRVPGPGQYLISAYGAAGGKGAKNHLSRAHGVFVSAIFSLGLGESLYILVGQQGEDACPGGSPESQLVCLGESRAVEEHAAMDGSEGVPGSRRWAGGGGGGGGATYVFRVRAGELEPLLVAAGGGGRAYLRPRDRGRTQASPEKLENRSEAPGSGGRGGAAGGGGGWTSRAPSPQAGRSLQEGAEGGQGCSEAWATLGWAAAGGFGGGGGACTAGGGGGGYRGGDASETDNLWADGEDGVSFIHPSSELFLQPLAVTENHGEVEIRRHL
Method: FIG. 12H, ITC experiments for the titration of LTKTG (10 μM) with ALKAL1FL (40 μM) Standard deviations were calculated based on 2 measurements.
(§1) Experiments were performed using a MicroCal PEAQ-ITC instrument at 310K. Proteins used in ITC experiments were expressed in HEK293S cells grown in suspension. As a final purification step all proteins were buffer exchanged to the same HBS buffer via size-exclusion chromatography. Titrations were preceded by an initial injection of 0.5 μL. The injection spacing was optimized per experiment to allow for the signal to get back to a stable baseline. Throughout the titration the sample was stirred at a speed of 750 r.p.m. Data were analyzed using the PEAQ-ITC analysis software (version 1.1.0.1262, Malvern) and fit using a “one set of sites” model.

[2] = target: T2, LTKTG-EGFL (human LTK amino acids 63-420) (human, UniProt P29376 63-420); assay: ITC at 310 K, LTKTG-EGFL (7.2 µM) titrated with ALKAL1FL (55 µM), one-site model
T2 construct: Fc-His6 tag removed by caspase 3; also called LTK (in BLI, SEC-MALLS and ITC)
T2 sequence: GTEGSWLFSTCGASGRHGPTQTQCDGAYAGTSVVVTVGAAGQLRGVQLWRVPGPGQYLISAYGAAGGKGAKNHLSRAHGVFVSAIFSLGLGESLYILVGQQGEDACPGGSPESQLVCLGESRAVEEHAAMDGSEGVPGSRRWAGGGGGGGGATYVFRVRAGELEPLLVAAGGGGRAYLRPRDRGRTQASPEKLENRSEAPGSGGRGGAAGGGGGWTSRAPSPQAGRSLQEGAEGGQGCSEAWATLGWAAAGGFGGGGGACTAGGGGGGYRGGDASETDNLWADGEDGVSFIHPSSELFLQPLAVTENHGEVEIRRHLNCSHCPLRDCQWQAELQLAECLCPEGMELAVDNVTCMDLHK
Method: (§2) The right panel represents the binding isotherm obtained from the integration of the raw data and fitted to a one-site model. Standard deviations were calculated based on 3 measurements.
as §1

[3] = target: T3, ALKTG-EGFL (human ALK amino acids 648-1025) (human, UniProt Q9UM73 648-1025, N-linked glycans; EndoH-trimmed (deglycosylated) for crystals and SEC-MALLS); assay: BLI, biotinylated ALKAL2 F97E on streptavidin biosensors, ALKTG-EGFL in solution
T3 construct: The C-terminal Fc-His6 tag was removed by caspase 3; also called ALK (in BLI, SEC-MALLS and ITC)
From the text: (§3) FIGS. 10A and 10B Representative response curves as measure by biolayer-interferometry (BLI) for the interaction of WT ALKAL1 and ALKAL1 mutants (containing charge-reversal mutations of residues involved in site 1) (FIG. 10A) and WT ALKAL2 and ALKAL2 mutants (FIG. 10B) with ALK_TG-EGFL and LTK_TG-EGFL. For WT ALKALs LTK curves were fitted with a 2:1 binding model (red) while for ALK a 1:1 model was used. Start and end concentrations of the 3-fold dilution series used for the WT measurements is shown as an inset while for all mutants a […] dilution series from 6.4 μM-400 nM was used.
(§4) All measurements of binding kinetics and dissociation constants were performed using an Octet Red 96 (Forté Bio) in assay buffer (20 mM HEPES pH 7.4, 150 mM NaCl, 0.02% (w/v) BSA, 0.002% (v/v) Tween 20) at 298K. ALKALs were immobilized to a level of 0.5 nm on streptavidin-coated biosensors (Forté Bio). To verify that no a specific binding was present during the assay, non-functionalized biosensors were used as a control by measuring in parallel all ligand concentrations as well as running buffer. For all mutants a two-fold dilution series from 6.4 μM-400 nM was employed. Data analysis was performed using the Data Analysis software 9.0.0.14 (Forté Bio) and binding curves were exported to Prism8 (Graphpad Software) for plotting of curves.

[4] = target: T2, LTKTG-EGFL (human LTK amino acids …); assay: BLI, biotinylated ALKAL2 F97E on streptavidin biosensors, LTKTG-EGFL in solution, dilution series 6.4 µM-400 nM; only component 1 is printed
From the text: as §3, §4

[5] = target: T3, ALKTG-EGFL (human ALK amino acids …); assay: BLI, biotinylated ALKAL2 R136E on streptavidin biosensors, ALKTG-EGFL in solution, dilution series 6.4 µM-400 nM
From the text: as §3, §4

[6] = target: T2, LTKTG-EGFL (human LTK amino acids …); assay: BLI, biotinylated ALKAL2 R136E on streptavidin biosensors, LTKTG-EGFL in solution, dilution series 6.4 µM-400 nM
From the text: as §3, §4

[7] = target: T4, ALKTG (human ALK amino acids 648-985) (human, UniProt Q9UM73 648-985, N-linked glycans; EndoH-trimmed for crystals and SEC-MALLS); assay: ITC
T4 construct: Fc-His6 tag removed by caspase 3; also called ALK TG supradomain
Method: as §1

[8] = target: T3, ALKTG-EGFL (human ALK amino acids …); assay: ITC, 310 K, one-site model
Method: (§5) FIG. 5A and FIG. 5B Isothermal titration calorimetry thermograms for the titration of ALK_TG-EGFL (10 μM) with ALKAL2 (100 μM) (FIG. 5A) and titration of ALKAL1 (25 μM) with ALK_TG-EGFL (210 μM) (FIG. 5B). […] The right panel represents the binding isotherm obtained from the integration of the raw data and fitted to a one-site model. Standard deviations were calculated based on 3 measurements.
as §1

[9] = target: T2, LTKTG-EGFL (human LTK amino acids …); assay: ITC, 310 K, one-site model, 2:1 stoichiometry
Method: as §2, §1

[10] = target: T4, ALKTG (human ALK amino acids 648-985); assay: ITC at 310 K, ALKAL1 (33 µM) titrated with ALKTG (330 µM), one-site model
Method: FIG. 5E, Titration of ALKAL1 (33 μM) with ALKTG (330 μM) Standard deviations were calculated based on 3 measurements.
as §1

[11] = target: T1, LTKTG (human LTK amino acids 63-379); assay: ITC at 310 K, LTKTG (10 µM) titrated with ALKAL1 (70 µM), one-site model
Method: FIG. 12F, ITC experiments for the titration of LTKTG (10 μM) with ALKAL1 (70 μM) Standard deviations were calculated based on 2 measurements.
as §1

[12] = target: T2, LTKTG-EGFL (human LTK amino acids …); assay: ITC at 310 K, LTKTG-EGFL (5 µM) titrated with ALKAL1 (56 µM), one-site model
Method: as §2, §1

[13] = target: T3, ALKTG-EGFL (human ALK amino acids …); assay: ITC at 310 K, ALKAL1 (25 µM) titrated with ALKTG-EGFL (210 µM), one-site model
Method: as §5, §1

[14] = target: T3, ALKTG-EGFL (human ALK amino acids …); assay: BLI, biotinylated ALKAL1 on streptavidin biosensors, ALKTG-EGFL in solution 6 µM to 400 nM, 1:1 model
From the text: as §3, §4

[15] = target: T2, LTKTG-EGFL (human LTK amino acids …); assay: BLI, biotinylated ALKAL1 on streptavidin biosensors, LTKTG-EGFL in solution 300 nM to 11 nM, 2:1 binding model, component 1
From the text: as §3, §4

[16] = target: T2, LTKTG-EGFL (human LTK amino acids …); assay: BLI, biotinylated ALKAL1 on streptavidin biosensors, LTKTG-EGFL in solution 300 nM to 11 nM, 2:1 binding model, component 2
From the text: as §3, §4

[17] = target: T2, LTKTG-EGFL (human LTK amino acids …); assay: BLI, biotinylated ALKAL1 F76E on streptavidin biosensors, LTKTG-EGFL in solution, dilution series 6.4 µM-400 nM, biphasic fit, component 1
From the text: as §3, §4

[18] = target: T2, LTKTG-EGFL (human LTK amino acids …); assay: BLI, biotinylated ALKAL1 F76E on streptavidin biosensors, LTKTG-EGFL in solution, dilution series 6.4 µM-400 nM, biphasic fit, component 2
From the text: as §3, §4

[19] = target: T2, LTKTG-EGFL (human LTK amino acids …); assay: BLI, biotinylated ALKAL1 R115E on streptavidin biosensors, LTKTG-EGFL in solution, dilution series 6.4 µM-400 nM
From the text: as §3, §4

T4 sequence (Q9UM73 648-985 limits assumed): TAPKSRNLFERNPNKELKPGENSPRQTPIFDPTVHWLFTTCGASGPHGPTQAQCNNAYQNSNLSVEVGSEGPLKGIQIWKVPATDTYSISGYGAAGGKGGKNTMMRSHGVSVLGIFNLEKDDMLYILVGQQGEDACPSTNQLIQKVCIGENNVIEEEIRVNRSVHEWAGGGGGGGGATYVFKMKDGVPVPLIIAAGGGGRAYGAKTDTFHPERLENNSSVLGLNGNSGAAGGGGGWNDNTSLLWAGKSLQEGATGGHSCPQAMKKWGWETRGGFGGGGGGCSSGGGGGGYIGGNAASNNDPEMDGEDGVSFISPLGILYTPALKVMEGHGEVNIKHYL
T3 sequence (Q9UM73 648-1025): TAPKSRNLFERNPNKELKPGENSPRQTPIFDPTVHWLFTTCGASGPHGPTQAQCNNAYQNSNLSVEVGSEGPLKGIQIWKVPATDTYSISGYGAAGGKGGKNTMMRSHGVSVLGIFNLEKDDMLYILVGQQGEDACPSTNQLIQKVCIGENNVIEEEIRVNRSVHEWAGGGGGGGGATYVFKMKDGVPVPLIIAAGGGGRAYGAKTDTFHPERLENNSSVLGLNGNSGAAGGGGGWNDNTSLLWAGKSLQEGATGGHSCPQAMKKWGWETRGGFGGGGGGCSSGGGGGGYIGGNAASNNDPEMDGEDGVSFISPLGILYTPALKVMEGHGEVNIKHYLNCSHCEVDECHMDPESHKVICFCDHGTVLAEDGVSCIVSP

B1: ALKAL1FL (full-length ALKAL1, residues 28-129) (ligand, human, UniProt Q6UXT8 28-129, looked up)
chain: RPRGRRGARVTDKEPKPLLFLPAAGAGRTPSGSRSAEIFPRDSNLKDKFIKHFTGPVTFSPECSKHFHRLYYNTRECSTPAYYKRCARLLTRLAVSPLCSQT
notes: range 28-129; Sumostar tag removed by caspase 3
Kd [1]: 24 nM
ΔG [1]: -10.8 kcal/mol
ΔH [1]: -29.6 kcal/mol
Kd [2]: 11 nM
ΔG [2]: -11.3 kcal/mol
ΔH [2]: -31.7 kcal/mol

B4: ALKAL1 (truncated, residues 57-129) (ligand, human, UniProt Q6UXT8 57-129, looked up)
chain: PSGSRSAEIFPRDSNLKDKFIKHFTGPVTFSPECSKHFHRLYYNTRECSTPAYYKRCARLLTRLAVSPLCSQT
notes: range 57-129; Tag-free in ITC, SEC-MALLS, crystals and Ba/F3 assays; also called ALKAL1^WT; WT ALKAL1
fold decrease in affinity against ALKTG-EGFL [7]: 4 fold
Kd [8]: 600 nM
Kd [9]: 10 nM
Kd [10]: 2500 nM
ΔG [10]: -7.95 kcal/mol
ΔH [10]: -5.5 kcal/mol
Kd [11]: 69 nM
ΔG [11]: -10.2 kcal/mol
ΔH [11]: -28.6 kcal/mol
Kd [12]: 55 nM
ΔG [12]: -10.4 kcal/mol
ΔH [12]: -29.4 kcal/mol
ΔG [13]: -8.93 kcal/mol
ΔH [13]: -7.3 kcal/mol
Kd [14]: 760 nM
koff [14]: 0.093 s⁻¹
kon [14]: 130000 M⁻¹ s⁻¹
Kd [15]: 48 nM
koff [15]: 0.0025 s⁻¹
kon [15]: 52000 M⁻¹ s⁻¹
Kd [16]: 31 nM
koff [16]: 0.026 s⁻¹
kon [16]: 860000 M⁻¹ s⁻¹

B5: ALKAL1^F76E (residues 57-129) (ligand, human, UniProt Q6UXT8 57-129, looked up)
chain: PSGSRSAEIFPRDSNLKDKEIKHFTGPVTFSPECSKHFHRLYYNTRECSTPAYYKRCARLLTRLAVSPLCSQT
notes: range 57-129; Avi-tagged and biotinylated in BLI; used as purified protein in SEC-MALLS and Ba/F3 assays; also called ALKAL1 site 2 mutant
Kd [17]: 350 nM
koff [17]: 0.0005 s⁻¹
kon [17]: 4000 M⁻¹ s⁻¹
Kd [18]: 1500 nM
koff [18]: 0.11 s⁻¹
kon [18]: 60000 M⁻¹ s⁻¹

B6: ALKAL1^R115E (residues 57-129) (ligand, human, UniProt Q6UXT8 57-129, looked up)
chain: PSGSRSAEIFPRDSNLKDKFIKHFTGPVTFSPECSKHFHRLYYNTRECSTPAYYKRCAELLTRLAVSPLCSQT
notes: range 57-129; also called ALKAL1 site 1 mutant R115E
Kd [19]: 3.1 µM
koff [19]: 0.041 s⁻¹
kon [19]: 13000 M⁻¹ s⁻¹

Continued, values first:

Kd [3]: 200 nM
koff [3]: 0.071 s⁻¹
kon [3]: 450000 M⁻¹ s⁻¹
Kd [4]: 8.4 µM
koff [4]: 0.16 s⁻¹
kon [4]: 53000 M⁻¹ s⁻¹
B2: ALKAL2^F97E (residues 78-152) (ligand, human, UniProt Q6UX46 78-152, looked up)
chain: PSPEQRVEIVPRDLRMKDKELKHLTGPLYFSPKCSKHFHRLYHNTRDCTIPAYYKRCARLLTRLAVSPVCMEDKQ
notes: range 78-152; Avi-tagged and biotinylated in BLI; used as purified protein in SEC-MALLS and Ba/F3 assays; also called ALKAL2 site 2 mutant F97E

Kd [5]: 1500 nM
koff [5]: 0.8 s⁻¹
Kd [6]: 5.9 µM
koff [6]: 0.12 s⁻¹
kon [6]: 20000 M⁻¹ s⁻¹
B3: ALKAL2^R136E (residues 78-152) (ligand, human, UniProt Q6UX46 78-152, looked up)
chain: PSPEQRVEIVPRDLRMKDKFLKHLTGPLYFSPKCSKHFHRLYHNTRDCTIPAYYKRCAELLTRLAVSPVCMEDKQ
notes: range 78-152; also called ALKAL2 site 1 mutant R136E
